According to patent publication US20030118612A1 (MAXYGEN, published 2003):
Numbering of substitutions follows the chain as printed. Names may count otherwise.

T1: human G-CSF receptor (human, UniProt Q99062 25-836)
T1 sequence (looked up): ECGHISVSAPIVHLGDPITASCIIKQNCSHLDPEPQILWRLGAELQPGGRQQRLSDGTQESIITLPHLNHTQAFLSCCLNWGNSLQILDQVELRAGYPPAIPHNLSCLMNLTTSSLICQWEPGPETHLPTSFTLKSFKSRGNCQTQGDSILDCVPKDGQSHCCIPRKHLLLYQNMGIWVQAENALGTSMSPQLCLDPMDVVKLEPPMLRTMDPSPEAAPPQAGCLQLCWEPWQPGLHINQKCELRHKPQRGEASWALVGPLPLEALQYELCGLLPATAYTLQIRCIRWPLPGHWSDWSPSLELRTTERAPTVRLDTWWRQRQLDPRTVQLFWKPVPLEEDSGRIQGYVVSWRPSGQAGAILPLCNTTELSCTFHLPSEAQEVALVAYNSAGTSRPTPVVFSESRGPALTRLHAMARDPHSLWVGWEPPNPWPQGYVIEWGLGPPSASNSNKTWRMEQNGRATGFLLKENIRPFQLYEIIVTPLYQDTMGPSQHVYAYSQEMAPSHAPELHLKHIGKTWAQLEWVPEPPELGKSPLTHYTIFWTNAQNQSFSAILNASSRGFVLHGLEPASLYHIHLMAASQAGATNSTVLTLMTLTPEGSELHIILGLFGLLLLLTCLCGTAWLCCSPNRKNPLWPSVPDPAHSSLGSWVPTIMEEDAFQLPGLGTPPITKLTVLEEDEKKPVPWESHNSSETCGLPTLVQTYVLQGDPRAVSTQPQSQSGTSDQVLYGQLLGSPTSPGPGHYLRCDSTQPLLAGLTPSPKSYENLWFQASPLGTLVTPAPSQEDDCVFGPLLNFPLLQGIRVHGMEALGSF

B1: G-CSF variant 23Q conjugated to SPA-PEG 5000 (ligand)
chain: TPLGPASSLPQSFLLKCLEQVRQIQGDGAALQEKLCATYKLCHPEELVLLGHSLGIPWAPLSSCPSQALQLAGCLSQLHSGLFLYQGLLQALEGISPELGPTLDTLQLDVADFATTIWQQMEELGMAPALQPTQGAMPAFASAFQRRAGGVLVASHLQSFLEVSYRVLRHLAQP
modifications: SPA-PEG 5000 conjugated to the available PEGylation sites
B2: G-CSF variant 34Q conjugated to SPA-PEG 5000 (ligand)
chain: B1 chain with Q23K, K34Q
modifications: SPA-PEG 5000 conjugated to the available PEGylation sites
B3: G-CSF variant K16/34/40R Q90K Q120K T133K conjugated to SPA-PEG 5000 (ligand)
chain: B1 chain with K16R, Q23K, K34R, K40R, Q90K, Q120K, T133K
modifications: SPA-PEG 5000 conjugated to the available PEGylation sites
B4: G-CSF variant 23R conjugated to SPA-PEG 5000 (ligand)
chain: B1 chain with Q23R
modifications: SPA-PEG 5000 conjugated to the available PEGylation sites
B5: G-CSF variant K16/40R, non-conjugated (ligand)
chain: B1 chain with K16R, Q23K, K40R
B6: G-CSF variant K16/23Q, non-conjugated (ligand)
chain: B1 chain with K16Q
B7: G-CSF variant K16/34/40R Q70K Q120K T133K, non-conjugated (ligand)
chain: B1 chain with K16R, Q23K, K34R, K40R, Q70K, Q120K, T133K
B8: G-CSF variant K16/34/40R Q70K Q90K T133K, non-conjugated (ligand)
chain: B1 chain with K16R, Q23K, K34R, K40R, Q70K, Q90K, T133K
B9: G-CSF variant 40R, non-conjugated (ligand)
chain: B1 chain with Q23K, K40R
B10: G-CSF variant 34Q, non-conjugated (ligand)
chain: B1 chain with Q23K, K34Q
B11: G-CSF variant K16/34/40R Q120K T133K S142K, non-conjugated (ligand)
chain: B1 chain with K16R, Q23K, K34R, K40R, Q120K, T133K, S142K
B12: G-CSF variant K16/34/40R Q70K Q120K T133K conjugated to SPA-PEG 5000 (ligand)
chain: B1 chain with K16R, Q23K, K34R, K40R, Q70K, Q120K, T133K
modifications: SPA-PEG 5000 conjugated to the available PEGylation sites
B13: G-CSF variant 34A conjugated to SPA-PEG 5000 (ligand)
chain: B1 chain with Q23K, K34A
modifications: SPA-PEG 5000 conjugated to the available PEGylation sites
B14: G-CSF variant K34/40R conjugated to SPA-PEG 5000 (ligand)
chain: B1 chain with Q23K, K34R, K40R
modifications: SPA-PEG 5000 conjugated to the available PEGylation sites
B15: G-CSF variant K16/23R conjugated to SPA-PEG 5000 (ligand)
chain: B1 chain with K16R, Q23R
modifications: SPA-PEG 5000 conjugated to the available PEGylation sites
B16: G-CSF variant 34A, non-conjugated (ligand)
chain: B1 chain with Q23K, K34A
B17: G-CSF variant K16/23R, non-conjugated (ligand)
chain: B1 chain with K16R, Q23R
B18: G-CSF variant K16/34/40R Q70K Q90K Q120K conjugated to SPA-PEG 5000 (ligand)
chain: B1 chain with K16R, Q23K, K34R, K40R, Q70K, Q90K, Q120K
modifications: SPA-PEG 5000 conjugated to the available PEGylation sites
B19: G-CSF variant 34R conjugated to SPA-PEG 5000 (ligand)
chain: B1 chain with Q23K, K34R
modifications: SPA-PEG 5000 conjugated to the available PEGylation sites
B20: G-CSF variant K16/34/40R Q90K T105K S159K conjugated to SPA-PEG 5000 (ligand)
chain: B1 chain with K16R, Q23K, K34R, K40R, Q90K, T105K, S159K
modifications: SPA-PEG 5000 conjugated to the available PEGylation sites
B21: G-CSF variant 40R conjugated to SPA-PEG 5000 (ligand)
chain: B1 chain with Q23K, K40R
modifications: SPA-PEG 5000 conjugated to the available PEGylation sites
B22: G-CSF variant K16/34/40R Q90K T105K S159K, non-conjugated (ligand)
chain: B1 chain with K16R, Q23K, K34R, K40R, Q90K, T105K, S159K
B23: G-CSF variant K16/34/40R T105K Q120K T133K, non-conjugated (ligand)
chain: B1 chain with K16R, Q23K, K34R, K40R, T105K, Q120K, T133K
B24: G-CSF variant K16/34/40R Q90K T105K Q120K, non-conjugated (ligand)
chain: B1 chain with K16R, Q23K, K34R, K40R, Q90K, T105K, Q120K
B25: G-CSF variant K16/34/40R Q90K Q120K S142K, non-conjugated (ligand)
chain: B1 chain with K16R, Q23K, K34R, K40R, Q90K, Q120K, S142K
B26: G-CSF variant K16/34/40R Q70K Q120K S142K conjugated to SPA-PEG 5000 (ligand)
chain: B1 chain with K16R, Q23K, K34R, K40R, Q70K, Q120K, S142K
modifications: SPA-PEG 5000 conjugated to the available PEGylation sites
B27: G-CSF variant K16/34/40R Q70K Q90K T133K conjugated to SPA-PEG 5000 (ligand)
chain: B1 chain with K16R, Q23K, K34R, K40R, Q70K, Q90K, T133K
modifications: SPA-PEG 5000 conjugated to the available PEGylation sites
B28: G-CSF variant K16/34/40R Q90K T105K T133K, non-conjugated (ligand)
chain: B1 chain with K16R, Q23K, K34R, K40R, Q90K, T105K, T133K
B29: G-CSF variant K16/34/40R T105K Q120K T133K conjugated to SPA-PEG 5000 (ligand)
chain: B1 chain with K16R, Q23K, K34R, K40R, T105K, Q120K, T133K
modifications: SPA-PEG 5000 conjugated to the available PEGylation sites
B30: G-CSF variant K16/34/40R Q90K T105K T133K conjugated to SPA-PEG 5000 (ligand)
chain: B1 chain with K16R, Q23K, K34R, K40R, Q90K, T105K, T133K
modifications: SPA-PEG 5000 conjugated to the available PEGylation sites
B31: G-CSF variant K16/34/40R Q90K T105K Q120K conjugated to SPA-PEG 5000 (ligand)
chain: B1 chain with K16R, Q23K, K34R, K40R, Q90K, T105K, Q120K
modifications: SPA-PEG 5000 conjugated to the available PEGylation sites
B32: G-CSF variant K16/34/40R Q70K Q120K S142K, non-conjugated (ligand)
chain: B1 chain with K16R, Q23K, K34R, K40R, Q70K, Q120K, S142K
B33: G-CSF variant 23R, non-conjugated (ligand)
chain: B1 chain with Q23R
B34: G-CSF variant 34R, non-conjugated (ligand)
chain: B1 chain with Q23K, K34R
B35: G-CSF variant K16/34/40R Q120K T133K S142K conjugated to SPA-PEG 5000 (ligand)
chain: B1 chain with K16R, Q23K, K34R, K40R, Q120K, T133K, S142K
modifications: SPA-PEG 5000 conjugated to the available PEGylation sites
B36: G-CSF variant K16/34/40R Q70K T105K Q120K conjugated to SPA-PEG 5000 (ligand)
chain: B1 chain with K16R, Q23K, K34R, K40R, Q70K, T105K, Q120K
modifications: SPA-PEG 5000 conjugated to the available PEGylation sites
B37: G-CSF variant K16/34/40R Q90K Q120K T133K, non-conjugated (ligand)
chain: B1 chain with K16R, Q23K, K34R, K40R, Q90K, Q120K, T133K
B38: G-CSF variant K16/34/40R Q70K T105K Q120K, non-conjugated (ligand)
chain: B1 chain with K16R, Q23K, K34R, K40R, Q70K, T105K, Q120K
B39: G-CSF variant K16/34R, non-conjugated (ligand)
chain: B1 chain with K16R, Q23K, K34R
B40: G-CSF variant K16/34/40R Q90K Q120K S142K conjugated to SPA-PEG 5000 (ligand)
chain: B1 chain with K16R, Q23K, K34R, K40R, Q90K, Q120K, S142K
modifications: SPA-PEG 5000 conjugated to the available PEGylation sites
B41: G-CSF variant K16/34R conjugated to SPA-PEG 5000 (ligand)
chain: B1 chain with K16R, Q23K, K34R
modifications: SPA-PEG 5000 conjugated to the available PEGylation sites
B42: G-CSF variant K34/40R, non-conjugated (ligand)
chain: B1 chain with Q23K, K34R, K40R
B43: G-CSF variant K16/23Q conjugated to SPA-PEG 5000 (ligand)
chain: B1 chain with K16Q
modifications: SPA-PEG 5000 conjugated to the available PEGylation sites
B44: G-CSF with N-terminal Histidine tag, non-conjugated (ligand)
chain: MKHQHQHQHQHQHQQTPLGPASSLPQSFLLKCLEQVRKIQGDGAALQEKLCATYKLCHPEELVLLGHSLGIPWAPLSSCPSQALQLAGCLSQLHSGLFLYQGLLQALEGISPELGPTLDTLQLDVADFATTIWQQMEELGMAPALQPTQGAMPAFASAFQRRAGGVLVASHLQSFLEVSYRVLRHLAQP

These binders were tested against T1, human G-CSF receptor (assay: cell-based or functional assay).

Binder | EC50 (% of hG-CSF) conjugated to SPA-PEG 5000 | EC50 (% of hG-CSF) non-conjugated
B1 | 0.1 % of hG-CSF | 
B2 | 1 % of hG-CSF | 
B3 | 2 % of hG-CSF | 
B4 | 0.1 % of hG-CSF | 
B5 |  | 50 % of hG-CSF
B6 |  | 80 % of hG-CSF
B7 |  | 15 % of hG-CSF
B8 |  | 15 % of hG-CSF
B9 |  | 50 % of hG-CSF
B10 |  | 70 % of hG-CSF
B11 |  | 10 % of hG-CSF
B12 | 2 % of hG-CSF | 
B13 | 1 % of hG-CSF | 
B14 | 5 % of hG-CSF | 
B15 | 1 % of hG-CSF | 
B16 |  | 80 % of hG-CSF
B17 |  | 100 % of hG-CSF
B18 | 12 % of hG-CSF | 
B19 | 1 % of hG-CSF | 
B20 | 5 % of hG-CSF | 
B21 | 1 % of hG-CSF | 
B22 |  | 55 % of hG-CSF

Binder | EC50 (% of hG-CSF) conjugated to SPA-PEG 5000 | EC50 (% of hG-CSF) non-conjugated
B23 |  | 10 % of hG-CSF
B24 |  | 10 % of hG-CSF
B25 |  | 10 % of hG-CSF
B26 | 1 % of hG-CSF | 
B27 | 5 % of hG-CSF | 
B28 |  | 10 % of hG-CSF
B29 | 1 % of hG-CSF | 
B30 | 2 % of hG-CSF | 
B31 | 2 % of hG-CSF | 
B32 |  | 10 % of hG-CSF
B33 |  | 100 % of hG-CSF
B34 |  | 100 % of hG-CSF
B35 | 1 % of hG-CSF | 
B36 | 2 % of hG-CSF | 
B37 |  | 15 % of hG-CSF
B38 |  | 10 % of hG-CSF
B39 |  | 100 % of hG-CSF
B40 | 1 % of hG-CSF | 
B41 | 10 % of hG-CSF | 
B42 |  | 50 % of hG-CSF
B43 | 1 % of hG-CSF | 
B44 |  | 10 % of hG-CSF
